Measured values published in publication PMC5103873.
Blank lines part the entries; values can stand above or below the substance they belong to.

Tests used:
arrestin3 [1] = experiment: single-cell FRET, PTH1R–eYFP / arrestin3–CFP
arrestin3 [2] = experiment: BRET, arrestin3–Rluc / PTH1R–eYFP; conditions: reference: wild type
arrestin3 [3] = experiment: dual-color FRAP of arrestin3–CFP; conditions: reference: wild type
[4] = biological target: parathyroid hormone receptor 1 (PTH1R) wild type, N-terminally HA-tagged, C-terminally eYFP-labelled (human) (UniProt Q03431)
[5] = biological target: PTH1R PD3 mutant (mutations of clusters 1 and 2 combined), HA- and eYFP-tagged (human) (UniProt Q03431)
[6] = sites S489,S491,S492,S493,S495,S501,T503,S504,T506

Substance: PTH1R (parathyroid hormone receptor 1) (from UniProt Q03431) PD3 (clusters 1 and 2 S/T to Ala)
percent of reference (% of WT maximum BRET) (arrestin3 [2]; [6]): 46.6 | other: arrestin3 recovery after photobleaching (arrestin3 [3]; [6]): weaker; reference 19.07 ± 0.68–23.94 ± 0.86

Substance: PTH1R (parathyroid hormone receptor 1) (from UniProt Q03431) T503A, S504A
other: arrestin3 recovery after photobleaching (arrestin3 [3]; sites T503,S504): weaker; reference 19.07 ± 0.68–23.94 ± 0.86 | other: agonist-induced FRET change (arrestin3 [1]; reference: wild type, sites T503,S504): weaker; reference 24.8 ± 12.7

Substance: PTH(1–34) (peptide)
pEC50 of PTH(1–34) for cAMP accumulation (HTRF) in HEK293 cells transfected with HA–PTH1R WT (without YFP), 15 min, 100 µM IBMX [4]: 10.9 | pEC50 of PTH(1–34) for cAMP accumulation (HTRF) in HEK293 cells transfected with HA–PTH1R PD3 (without YFP), 15 min, 100 µM IBMX [5]: 11.3

Continued, in another order:

other: increase in FRET (arrestin3 [1]; reference: before agonist): 24.8%
Substance: PTH1R (parathyroid hormone receptor 1) (from UniProt Q03431) 100 nM PTH(1–34)

percent of reference (% of WT maximum BRET) (arrestin3 [2]; sites S489,S491,S492,S493,S495): 80.8 | other: reduction of FRET signal vs WT (arrestin3 [1]; reference: wild type, sites S489,S491,S492,S493,S495): 42.1%
Substance: PTH1R (parathyroid hormone receptor 1) (from UniProt Q03431) PD1 (cluster 1 S/T to Ala)
other: arrestin3 recovery after photobleaching (arrestin3 [3]; sites S489,S491,S492,S493,S495): same; reference 19.07 ± 0.68–23.94 ± 0.86

percent of reference (% of WT maximum BRET) (arrestin3 [2]; sites S501,T503,S504,T506): 66.9
Substance: PTH1R (parathyroid hormone receptor 1) (from UniProt Q03431) PD2 (cluster 2 S/T to Ala)
other: arrestin3 recovery after photobleaching (arrestin3 [3]; sites S501,T503,S504,T506): weaker; reference 19.07 ± 0.68–23.94 ± 0.86
